Source: article PMC4503226 (FASEB journal : official publication of the Federation of …, 2011)

Target: the molecule itself
Experiment: FRET or BRET

B1: hOCT2 tagged with CFP or YFP at the N terminus (natural protein)
chain: MPTTVDDVLEHGGEFHFFQKQMFFLLALLSATFAPIYVGIVFLGFTPDHRCRSPGVAELSLRCGWSPAEELNYTVPGPGPAGEASPRQCRRYEVDWNQSTFDCVDPLASLDTNRSRLPLGPCRDGWVYETPGSSIVTEFNLVCANSWMLDLFQSSVNVGFFIGSMSIGYIADRFGRKLCLLTTVLINAAAGVLMAISPTYTWMLIFRLIQGLVSKAGWLIGYILITEFVGRRYRRTVGIFYQVAYTVGLLVLAGVAYALPHWRWLQFTVSLPNFFFLLYYWCIPESPRWLISQNKNAEAMRIIKHIAKKNGKSLPASLQRLRLEEETGKKLNPSFLDLVRTPQIRKHTMILMYNWFTSSVLYQGLIMHMGLAGDNIYLDFFYSALVEFPAAFMIILTIDRIGRRYPWAASNMVAGAACLASVFIPGDLQWLKIIISCLGRMGITMAYEIVCLVNAELYPTFIRNLGVHICSSMCDIGGIITPFLVYRLTNIWLELPLMVFGVLGLVAGGLVLLLPETKGKALPETIEEAENMQRPRKNKEKMIYLQVQKLDIPLN
NFRET: 0.176
